Three molecules from patent US20160304613A1 (Genentech, published 2016) can be followed below.

By koff is commonly meant a measure of how fast the partners let go of each other. High values mean a short-lived complex, low ones a long-lived complex. Usually kon stands for the second-order rate constant of association. The low end stands for slower complex formation, the high end for faster complex formation. Broadly, the IC50 is the point on the concentration scale where inhibition reaches its midpoint. Lower therefore signals greater potency. Broadly, the Kd is the free concentration of one partner at which half of the binding sites on the other are occupied at equilibrium, for simple one-to-one binding. Lower therefore signals higher affinity.

The target of experiment [1] is T1, murine NRP1 (murine, UniProt P97333 22-641).
T1 construct: range 1-641; Recombinant soluble protein; also called mNRP1; murine neuropilin-1
T1 sequence (P97333 22-641 limits assumed, form in doubt): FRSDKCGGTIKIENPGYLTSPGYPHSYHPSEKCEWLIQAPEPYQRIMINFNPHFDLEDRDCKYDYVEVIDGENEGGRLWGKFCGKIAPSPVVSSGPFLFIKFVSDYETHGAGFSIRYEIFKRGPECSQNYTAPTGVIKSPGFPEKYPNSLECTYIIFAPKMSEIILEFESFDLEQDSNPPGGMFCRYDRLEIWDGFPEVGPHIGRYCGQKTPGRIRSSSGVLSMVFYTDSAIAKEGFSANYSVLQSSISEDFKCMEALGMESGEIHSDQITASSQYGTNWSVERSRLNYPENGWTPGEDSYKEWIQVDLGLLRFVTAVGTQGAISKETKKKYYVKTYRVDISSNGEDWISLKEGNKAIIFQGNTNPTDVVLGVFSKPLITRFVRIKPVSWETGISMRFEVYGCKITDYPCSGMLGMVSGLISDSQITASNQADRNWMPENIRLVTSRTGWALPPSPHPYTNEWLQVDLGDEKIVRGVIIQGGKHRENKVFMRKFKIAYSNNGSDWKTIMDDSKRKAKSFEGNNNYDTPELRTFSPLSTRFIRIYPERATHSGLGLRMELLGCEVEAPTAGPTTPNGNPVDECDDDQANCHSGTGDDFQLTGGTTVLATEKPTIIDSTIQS
The experiment is described as follows: SPR (BIAcore-3000), IgG immobilized, NRP1 injected, 25 C. The method, then:
(§1) Association rates (kₒₙ) and dissociation rates (koff) were calculated using a simple one-to-one Langmuir binding model (BIAcore Evaluation Software version 3.2). The equilibrium dissociation constant (Kd) was calculated as the ratio koff/kₒₙ.
(§2) (See Materials and Methods).
In general terms: SPR reads the build-up and loss of mass on a sensor chip optically.

Experiment [2] has as its target T2, human NRP1 (human, UniProt O14786 22-641).
T2 construct: range 1-641; Recombinant soluble protein; also called hNRP1; human neuropilin-1
The experiment is described as above. How it is done: as §1, §2

Experiment [3] deals with T1, murine NRP1. The experiment is described as follows: competitive phage ELISA.
Experiment [4] has as its target T2, human NRP1. Nature of the experiment: competitive phage ELISA. (An ELISA detects its analyte on a solid surface through an enzyme-linked reagent.)
Experiment [5] deals with T1, murine NRP1. The experiment is described as follows: competitive phage ELISA, phage-displayed Fab'2, antigen in solution vs immobilized antigen.
Experiment [6] concerns the target T2, human NRP1. Described as above.
In a further experiment the target is T3, BSA (UniProt P02769 25-607).
T3 construct: Specificity control antigen
T3 sequence (P02769 25-607 limits assumed): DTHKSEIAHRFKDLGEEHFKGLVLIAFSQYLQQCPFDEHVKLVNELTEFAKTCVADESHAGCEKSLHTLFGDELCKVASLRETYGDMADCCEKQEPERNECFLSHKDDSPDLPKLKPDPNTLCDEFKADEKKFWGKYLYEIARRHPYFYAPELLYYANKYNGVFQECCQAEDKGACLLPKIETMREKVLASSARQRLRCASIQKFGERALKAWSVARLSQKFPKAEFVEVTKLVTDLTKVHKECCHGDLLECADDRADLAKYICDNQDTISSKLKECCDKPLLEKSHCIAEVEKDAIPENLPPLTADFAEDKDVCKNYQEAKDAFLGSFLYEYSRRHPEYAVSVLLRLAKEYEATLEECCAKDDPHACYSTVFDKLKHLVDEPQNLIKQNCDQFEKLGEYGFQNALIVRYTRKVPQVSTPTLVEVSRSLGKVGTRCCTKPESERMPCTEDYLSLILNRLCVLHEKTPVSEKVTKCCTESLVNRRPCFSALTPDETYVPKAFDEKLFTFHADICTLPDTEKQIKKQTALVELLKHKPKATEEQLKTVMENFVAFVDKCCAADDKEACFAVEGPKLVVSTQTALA
The experiment is described as follows: ELISA, antigen-coated wells (2 µg/ml), IgG at 10 µg/ml, detected with anti-human IgG HRP, OD450nm.

Experiment [7] deals with T4, human NRP2 (human, UniProt O60462 23-864, limits assumed).
T4 construct: Coated on wells in ELISA and injected in SPR; construct not described; also called hNRP2
T4 sequence (O60462 23-864 limits assumed): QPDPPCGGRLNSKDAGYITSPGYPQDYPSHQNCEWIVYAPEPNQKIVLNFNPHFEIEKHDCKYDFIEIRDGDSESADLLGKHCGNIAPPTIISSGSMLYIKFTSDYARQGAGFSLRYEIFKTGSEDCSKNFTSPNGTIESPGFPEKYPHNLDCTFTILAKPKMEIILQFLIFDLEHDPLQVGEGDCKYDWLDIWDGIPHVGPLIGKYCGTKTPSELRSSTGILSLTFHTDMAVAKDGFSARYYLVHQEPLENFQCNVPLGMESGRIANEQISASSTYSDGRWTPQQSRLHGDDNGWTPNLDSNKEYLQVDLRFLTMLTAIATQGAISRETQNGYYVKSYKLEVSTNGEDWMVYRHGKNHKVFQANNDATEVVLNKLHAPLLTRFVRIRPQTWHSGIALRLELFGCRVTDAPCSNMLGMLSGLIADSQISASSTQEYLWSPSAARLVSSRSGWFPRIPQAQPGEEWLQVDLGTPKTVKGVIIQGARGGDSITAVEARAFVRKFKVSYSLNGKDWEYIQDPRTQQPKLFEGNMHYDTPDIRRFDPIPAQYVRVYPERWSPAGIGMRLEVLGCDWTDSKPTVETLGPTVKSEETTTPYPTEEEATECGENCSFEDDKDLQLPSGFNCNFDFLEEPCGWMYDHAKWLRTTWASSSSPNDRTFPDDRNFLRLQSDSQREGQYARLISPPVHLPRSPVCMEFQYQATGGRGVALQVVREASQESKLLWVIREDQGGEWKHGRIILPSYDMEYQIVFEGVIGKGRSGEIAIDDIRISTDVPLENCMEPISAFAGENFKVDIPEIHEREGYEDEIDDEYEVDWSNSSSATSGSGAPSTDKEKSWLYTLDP
The description is as above.

For experiment [8], the target named is T5, murine NRP2 (murine, UniProt O35375 23-864, limits assumed).
T5 construct: Coated on wells in ELISA and injected in SPR; construct not described; In the Sema3F collapse assay it is the endogenous NRP2 of mouse E17 hippocampal neurons; also called mNRP2
T5 sequence (O35375 23-864 limits assumed): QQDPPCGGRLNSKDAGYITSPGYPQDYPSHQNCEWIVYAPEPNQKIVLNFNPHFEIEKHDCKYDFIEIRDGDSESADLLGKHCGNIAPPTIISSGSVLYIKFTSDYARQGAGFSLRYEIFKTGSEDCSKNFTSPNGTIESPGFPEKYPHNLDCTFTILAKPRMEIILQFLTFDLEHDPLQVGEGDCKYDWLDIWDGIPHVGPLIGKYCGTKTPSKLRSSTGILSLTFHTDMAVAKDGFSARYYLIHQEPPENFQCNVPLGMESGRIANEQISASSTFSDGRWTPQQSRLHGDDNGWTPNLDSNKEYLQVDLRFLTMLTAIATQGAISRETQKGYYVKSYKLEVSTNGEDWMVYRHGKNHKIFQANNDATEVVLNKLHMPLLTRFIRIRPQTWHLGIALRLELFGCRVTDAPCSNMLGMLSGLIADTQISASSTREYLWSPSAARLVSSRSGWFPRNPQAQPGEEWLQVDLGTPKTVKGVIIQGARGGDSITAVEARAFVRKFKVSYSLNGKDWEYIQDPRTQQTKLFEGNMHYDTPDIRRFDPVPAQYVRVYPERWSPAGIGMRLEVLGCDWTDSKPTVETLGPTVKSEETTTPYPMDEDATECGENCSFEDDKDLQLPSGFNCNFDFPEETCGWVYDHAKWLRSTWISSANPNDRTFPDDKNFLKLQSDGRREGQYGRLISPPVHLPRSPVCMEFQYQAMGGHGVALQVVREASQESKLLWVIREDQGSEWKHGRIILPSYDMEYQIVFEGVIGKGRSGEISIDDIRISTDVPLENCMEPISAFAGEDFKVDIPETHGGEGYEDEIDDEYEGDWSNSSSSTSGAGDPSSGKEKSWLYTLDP
The description is as above.

The target of the next experiment is T6, ErbB2-ECD (UniProt P04626 23-652, limits assumed).
T6 construct: extracellular domain; Specificity control antigen
The experiment is described as above.

The target in experiment [9] is T4, human NRP2. The experiment is described as follows: BIAcore SPR, IgG immobilized on the chip, antigen injected at 500 nM (printed '500nm'). The method, then:
as §1

The target in experiment [10] is T5, murine NRP2. The experiment is described as above. The method, then:
as §1

Turning to YW107.4 (antibody), the koff with murine NRP1 [1] amounted to 0.0015 s⁻¹; in the experiment with human NRP1 [2], 0.0011 s⁻¹. The figures for the kon with murine NRP1 [1] and with human NRP1 [2] were 140000 M⁻¹ s⁻¹ and 220000 M⁻¹ s⁻¹, respectively.

B1: YW64.3 (antibody, human IgG1, V domains shown)
VH: EVQLVESGGGLVQPGGSLRLSCAASGFSFSSEPISWVRQAPGKGLEWVSSITGKNGYTYYADSVKGRFTISADTSKNTAYLQMNSLRAEDTAVYYCARWGKKVYGMDVWGQGTLVTVSS
VL: DIQMTQSPSSLSASVGDRVTITCRASQSISSYLAWYQQKPGKAPKLLIYGASSRASGVPSRFSGSGSGTDFTLTISSLQPEDFATYYCQQYMSVPITFGQGTKVEIKR
notes: full length human IgG1 (CHO) in ELISA, SPR and FACS; also called anti-NRP1^A; anti-NRP^A
For the molecule B1, the half-maximal inhibitory concentration (IC50) in the experiment with murine NRP1 [3] was less than 70 nM; with human NRP1 [4] it was less than 70 nM; with murine NRP1 [5], 3.4 nM; in the experiment with human NRP1 [6] it was 0.48 nM. Also, the binding result with BSA, in the experiment with human NRP2 [7], with murine NRP2 [8] and with ErbB2-ECD was “no binding (tested: 10 µg/ml)” each time. For the same molecule, the Kd with murine NRP1 [1] was 7.8 nM; in the experiment with human NRP1 [2], 0.9 nM. The results for the koff in the experiment with murine NRP1 [1] and in the experiment with human NRP1 [2] were 0.00045 s⁻¹ and 0.00012 s⁻¹, respectively. Besides, the kon in the experiment with murine NRP1 [1] is 60000 M⁻¹ s⁻¹; with human NRP1 [2], 130000 M⁻¹ s⁻¹.

B2: YW107.4.87 (antibody, V domains shown)
VH: EVQLVESGGGLVQPGGSLRLSCAASGFTFSSYAMSWVRQAPGKGLEWVSQISPAGGYTNYADSVKGRFTISADTSKNTAYLQMNSLRAEDTAVYYCARELPYYRMSKVMDVWGQGTLVTVSS
VL: DIQMTQSPSSLSASVGDRVTITCRASQYFSSYLAWYQQKPGKAPKLLIYGASSRASGVPSRFSGSGSGTDFTLTISSLQPEDFATYYCQQYLGSPPTFGQGTKVEIKR
notes: Monovalent Fab on phage in the phage ELISA; also called anti-NRP1^B; anti-NRP^B
In the case of B2, the binding result with human NRP2 [9] and in the experiment with murine NRP2 [10] was “no binding (tested: 500 nM)” in each case.
